Each block holds one molecule with its values, some of them ahead of it.
Legend:
[1] = target: SIRPα protein (Acrobiosystems, Cat. No. SIA-H5225), V1 genotype (human) (UniProt P78324); assay: BLI (Octet Red96), SIRPα captured on H1S1K biosensor, antibody as analyte, 1:1 fit
[2] = target: T1, SIRPα protein (Acrobiosystems, Cat. No. SIA-H5225), V1 genotype (human, UniProt P78324 31-370); assay: ELISA, coated SIRPα (SIA-H5225)
T1 construct: Bought protein; also called recombinant SIRPα protein; antigen SIRPα
Protocol: The plates were then blocked with 1% BSA-PBS blocking solution for 1 h at 37° C. Plates were washed with PBST. The humanized antibodies were diluted to different concentrations (3-fold serially diluted from 66.7 nM, 11 concentration gradients in total) and added to the plates. After a 1 h incubation at 37° C., plates were washed and HRP-labeled goat anti-human IgG (manufacturer: Abcam, Cat. No. Ab98595, 1:10000 dilution) was added. After a 0.5 h incubation at 37° C., plates were washed and TMB solution was added. After a 5 min incubation at room temperature in the dark, the reaction was terminated by adding 2 N H₂SO₄. Absorbance was read at 450 nm on a microplate reader.

[3] = target: T2, biotin-labeled SIRPα (Acrobiosystems, Cat. No. CDA-H82F2), V1 genotype (human, UniProt P78324 31-370, biotin-labeled (site not stated)); assay: competition ELISA, blocking of biotin-labeled SIRPα binding to coated CD47-Fc (competitor CD47-Fc)
T2 construct: Bought protein; also called SIRPα (V1)
Protocol: (§1) 96-well plates were coated with CD47-Fc (manufacturer: Acrobiosystems, Cat. No. CD7-H5256) at 4° C. overnight. Plates were washed and blocked with 1% BSA-PBST blocking solution. […] After a 1 h incubation at 37° C., plates were washed and HRP-labeled streptavidin (manufacturer: Abcam, Cat. No.: ab7403) was added. After a 0.5 h incubation at 37° C., plates were washed and TMB solution was added. After a 0.5 h incubation at room temperature in the dark, the reaction was terminated by adding 2 N H₂SO₄. Absorbance was read at 450 nm on a microplate reader. IgG (manufacturer: GenScript) was used as the control.

[4] = target: T1, SIRPα protein (Acrobiosystems, Cat. No. …); assay: BLI (Octet Red96), SIRPα captured on H1S1K biosensor, antibody as analyte, 1:1 fit
[5] = target: biotin-labeled SIRPα (V2) (Acrobiosystems, Cat. No. SI2-H82W8) (human, UniProt P78324 31-370, biotin-labeled (site not stated)); assay: competition ELISA (FIG. 4C), blocking of biotin-labeled SIRPα (V2) binding to coated CD47-Fc
Protocol: as §1
(§2) The antibodies were 3-fold serially diluted from 200 nM and a total of nine concentration gradients were prepared.

[6] = target: biotin-labeled SIRPα (V8) (Acrobiosystems, Cat. No. SI8-H82W6) (human, UniProt P78324 31-370, biotin-labeled (site not stated)); assay: competition ELISA (FIG. 4D), blocking of biotin-labeled SIRPα (V8) binding to coated CD47-Fc
Protocol: as §1, §2

[7] = target: T2, biotin-labeled SIRPα (Acrobiosystems, …); assay: competition ELISA (FIG. 4A), blocking of biotin-labeled SIRPα (V1) binding to coated CD47-Fc; FIG. 4A, run beside KWAR23
Protocol: as §1
(§3) The antibodies were 2-fold serially diluted from 83.4 nM and a total of nine concentration gradients were prepared.

[8] = target: T2, biotin-labeled SIRPα (Acrobiosystems, …); assay: competition ELISA (FIG. 4B), blocking of biotin-labeled SIRPα (V1) binding to coated CD47-Fc; FIG. 4B, run beside 18D5 and 1H9
Protocol: as §1, §3

[9] = target: membrane SIRPα on THP-1 cells (human myeloid leukemia monocytes endogenously expressing SIRPα) (human) (UniProt P78324); assay: cell-based or functional assay
[10] = target: T2, biotin-labeled SIRPα (Acrobiosystems, …); assay: competition ELISA (FIG. 4B), blocking of biotin-labeled SIRPα (V1) binding to coated CD47-Fc

EC50 [2]: 0.464 nM | IC50 [3]: 0.209 nM
B1: #11 antibody (humanized anti-SIRPα antibody) (antibody, V domains shown)
VH: QVTLKESGPVLVKPTETLTLTCTVSGFSLSSHGVHWIRQPPGKALEWLAVIWSDGSTTYNSTLKSRLTISKDTSKSQVVLTMTNMDPVDTATYYCARHGNYHYNMDYWGQGTLVTVSS
VL: DIQLTQSPSFLSASVGDRVTITCRTSSRVNSGYLHWYQQKPGKAPKLLIYSTSTLASGVPSRFSGSGSGTEFTLTISSLQPEDFATYYCQQYSSYPWTFGGGTKLEIK
notes: Full antibody as tested

EC50 [2]: 0.683 nM | Kd [4]: 0.0217 nM | IC50 [5]: 7.8 nM | IC50 [6]: 11.5 nM | IC50 [3]: 0.132 nM | IC50 [7]: 3.4 nM | IC50 [8]: 4.4 nM
B2: #14 antibody (humanized anti-SIRPα antibody) (antibody, human IgG1, kappa, N297A, V domains shown)
VH: QVQLQESGPGLVKPSQTLSLTCTVSGGSISSGYYWSWIRQHPGKGLEWIGYISYDGSRYNNPSLKNRVTISVDTSKNQFSLKLSSVTAADTAVYYCAREEYANYFAYWGQGTTVTVSS
VL: DIVMTQSPDSLAVSLGERATINCKSSQSLFYSSNQKNFLAWYQQKPGQPPKLLIYWASTRESGVPDRFTGSGSGTDFTLTISSVKAEDLAVYYCQQYYSYPPTFGQGTKLEIKR

EC50 [2]: 1.83 nM | IC50 [3]: 6.03 nM
B3: #4 antibody (humanized anti-SIRPα antibody) (antibody, V domains shown)
VH: EVQLVQSGAEVKKPGATVKISCRGSGFNIKDYYIQWVQQAPGKGLEWMGWIDPENGDTKYAPKFQGRVTITADTSTDTAYMELSSLRSEDTAVYYCYAKGPYWGQGTTLTVSS
VL: DIVMTQSPDSLAVSLGERATINCKSSQSLFYSSNQKNFLAWYQQKPGQPPKLLIYWASTRESGVPDRFTGSGSGTDFTLTISSVKAEDLAVYYCQQYYSYPPTFGGGTKLEIK
notes: Full antibody as tested

EC50 [2]: 0.952 nM | IC50 [3]: 1.5 nM
B4: #13 antibody (humanized anti-SIRPα antibody) (antibody, V domains shown)
VH: QVQLVQSGSELKKPGASVKVSCKASGYTFTDYSIHWVRQAPGQGLEWMGWINTETGEPTYADDFKGRFVFSLDTSVSTAYLQICSLKAEDTAVYYCSRGPLYRYDGYGLEYWGQGTLVTVSS
VL: DIVMTQSPDSLAVSLGERATINCKASQSVSNDVAWYQQKPGQPPKLLIYYASNRCTGVPDRFSGSGSGTDFTLTISSLQAEDVAVYYCHQDYISPYTFGGGTKLEIK
notes: Full antibody as tested

IC50 [10]: 4.2 nM
B7: 1H9 (antibody, V domains shown)
VH: QVQLQQPGAERVKPGASVKMSCKASGYTFTSYWITWVKQRPGQGLEWIGDIYPGSGSTNHIEKFKSKATLTVDTSSNTAYMQLSRLTSEDSAVYYCATGYGSSYGYFDYWGQGTTLTVSS
VL: DIQMTQSPASLSASVGETVTITCRASENIYSYLAWYQQKQGKSPQLLVYTAKTLAEGVPSRFSGSGSGTQFSLKINSLQPEDFGNYYCQHQYGPPFTFGSGTRLVIK

Continued, molecule first:

Molecule: KWAR23 (antibody)
Kd [1]: 0.0509 nM

B5: KWAR23 (antibody, V domains shown)
VH: EVQLQQSGAELVKPGASVKLSCTASGFNIKDYYIHWVQQRTEQGLEWIGRIDPEDGETKYAPKFQDKATITADTSSNTAYLHLSSLTSEDTAVYYCARWGAYWGQGTLVTVSS
VL: QIVLTQSPAIMSASPGEKVTLTCSASSSVSSSYLYWYQQKPGSSPKLWIYSTSNLASGVPARFSGSGSGTSYSLTISSMEAEDAASYFCHQWSSYPRTFGAGTKLELK
Endocytosis rate (%) [9]: 34.7% | IC50 [5]: 6.4 nM | IC50 [6]: 10.8 nM

B6: 18D5 (antibody, V domains shown)
VH: QVQLQQPGAELVRPGSSVKLSCKASGYTFTSYWVHWVKQRPIQGLEWIGNIDPSDSDTHYNQKFKDKASLTVDKSSSTAYMQLSSLTFEDSAVYYCVRGGTGTMAWFAYWGQGTLVTVSA
VL: DVVMTQTPLSLPVSLGDQASISCRSSQSLVHSYGNTYLYWYLQKPGQSPKLLIYRVSNRFSGVPDRFSGSGSGTDFTLKISRVEAEDLGVYFCFQGTHVPYTFGSGTKLEIK
IC50 [10]: 4.1 nM

— patent US20240034804A1 (BIORAY PHARMACEUTICAL, published 2024)
